# Reference: US20160237153A1 (DUKE UNIVERSITY, published 2016)
# B1: 1E16 monoclonal antibody (antibody, IgG1, V domains shown)
# VH: QGQMQQSGAELVKPGASVKLSCKTSGFTFSSSYISWLKQKPGQSLEWIAWIYAGTGGTSYNQKFTGKAQLTVDTSSSTAYMQFSSLTTEDSAIYYCARQDGNYRYWYFDVWGAGTTVTVSS
# VL: ETTVTQSPASLSMAIGEKVTIRCITSTDIDDDMNWYQQKPGEPPKLLISEGNTLRPGVPSRFSSSGYGTDFVFTIENMLSEDVADYYCLQSDNLPLTFGGGTKLEIK
# notes: also called 1E16 mAb; 1E16 Ab
# Experiments:
# [1] = molecular target: T1, mouse NaV1.5 expressed in HEK293 cells (mouse, UniProt Q9JJV9 1-2019); test: cell-based or functional assay
# T1 sequence (Q9JJV9 whole entry): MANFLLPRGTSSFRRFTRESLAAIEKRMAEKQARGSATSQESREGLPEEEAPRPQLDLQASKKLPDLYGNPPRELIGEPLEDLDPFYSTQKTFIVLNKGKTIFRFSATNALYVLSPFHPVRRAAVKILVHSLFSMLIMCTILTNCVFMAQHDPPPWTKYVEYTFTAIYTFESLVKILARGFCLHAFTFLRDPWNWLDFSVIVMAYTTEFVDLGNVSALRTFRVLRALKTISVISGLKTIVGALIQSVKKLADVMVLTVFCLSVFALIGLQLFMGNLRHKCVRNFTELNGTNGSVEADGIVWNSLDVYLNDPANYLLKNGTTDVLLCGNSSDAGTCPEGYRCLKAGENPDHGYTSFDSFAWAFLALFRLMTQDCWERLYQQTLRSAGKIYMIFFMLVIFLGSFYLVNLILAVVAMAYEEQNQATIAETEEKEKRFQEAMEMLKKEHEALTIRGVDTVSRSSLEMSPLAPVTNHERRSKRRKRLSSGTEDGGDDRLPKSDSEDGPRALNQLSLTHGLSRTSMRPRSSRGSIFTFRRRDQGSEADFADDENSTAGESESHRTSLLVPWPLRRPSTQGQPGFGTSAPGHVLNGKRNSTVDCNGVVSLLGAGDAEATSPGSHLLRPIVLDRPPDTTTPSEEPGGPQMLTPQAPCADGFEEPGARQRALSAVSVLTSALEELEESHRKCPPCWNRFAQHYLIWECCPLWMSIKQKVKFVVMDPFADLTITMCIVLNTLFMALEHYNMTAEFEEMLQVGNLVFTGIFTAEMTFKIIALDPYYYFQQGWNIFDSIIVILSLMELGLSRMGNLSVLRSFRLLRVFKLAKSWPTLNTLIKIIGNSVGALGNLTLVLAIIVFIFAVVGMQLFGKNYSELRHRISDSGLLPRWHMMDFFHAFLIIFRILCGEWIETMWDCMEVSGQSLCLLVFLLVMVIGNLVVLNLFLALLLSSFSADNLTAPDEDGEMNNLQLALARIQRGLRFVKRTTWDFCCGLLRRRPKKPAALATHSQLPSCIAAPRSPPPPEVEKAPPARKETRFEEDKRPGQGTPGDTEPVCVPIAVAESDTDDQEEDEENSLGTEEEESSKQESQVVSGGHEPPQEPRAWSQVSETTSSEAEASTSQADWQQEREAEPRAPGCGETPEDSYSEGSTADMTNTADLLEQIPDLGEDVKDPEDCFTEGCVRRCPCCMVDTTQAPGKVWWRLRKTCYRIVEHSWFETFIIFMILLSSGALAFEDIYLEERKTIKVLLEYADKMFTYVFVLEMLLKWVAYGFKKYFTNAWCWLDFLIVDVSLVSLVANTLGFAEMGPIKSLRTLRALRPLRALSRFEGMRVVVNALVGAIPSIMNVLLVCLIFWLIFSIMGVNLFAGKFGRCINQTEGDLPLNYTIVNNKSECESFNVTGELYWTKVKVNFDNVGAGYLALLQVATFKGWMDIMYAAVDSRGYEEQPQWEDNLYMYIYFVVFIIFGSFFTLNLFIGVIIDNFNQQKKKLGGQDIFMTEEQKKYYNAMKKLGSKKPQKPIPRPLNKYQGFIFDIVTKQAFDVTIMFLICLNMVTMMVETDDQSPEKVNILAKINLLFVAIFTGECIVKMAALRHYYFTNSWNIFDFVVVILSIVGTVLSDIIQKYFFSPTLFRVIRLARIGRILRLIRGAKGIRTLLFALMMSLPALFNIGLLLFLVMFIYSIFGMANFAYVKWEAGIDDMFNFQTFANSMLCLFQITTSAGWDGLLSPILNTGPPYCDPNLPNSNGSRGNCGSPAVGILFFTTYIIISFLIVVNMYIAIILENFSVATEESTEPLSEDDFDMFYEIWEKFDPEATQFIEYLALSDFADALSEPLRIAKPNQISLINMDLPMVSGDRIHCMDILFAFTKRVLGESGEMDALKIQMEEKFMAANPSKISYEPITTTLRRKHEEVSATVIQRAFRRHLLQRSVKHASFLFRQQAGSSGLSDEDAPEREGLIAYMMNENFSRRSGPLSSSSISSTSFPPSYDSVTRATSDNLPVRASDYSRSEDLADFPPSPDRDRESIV
# [2] = molecular target: T2, human NaV1.4 expressed in HEK293 cells (human, UniProt P35499 1-1836); test: cell-based or functional assay
# T2 sequence (P35499 whole entry): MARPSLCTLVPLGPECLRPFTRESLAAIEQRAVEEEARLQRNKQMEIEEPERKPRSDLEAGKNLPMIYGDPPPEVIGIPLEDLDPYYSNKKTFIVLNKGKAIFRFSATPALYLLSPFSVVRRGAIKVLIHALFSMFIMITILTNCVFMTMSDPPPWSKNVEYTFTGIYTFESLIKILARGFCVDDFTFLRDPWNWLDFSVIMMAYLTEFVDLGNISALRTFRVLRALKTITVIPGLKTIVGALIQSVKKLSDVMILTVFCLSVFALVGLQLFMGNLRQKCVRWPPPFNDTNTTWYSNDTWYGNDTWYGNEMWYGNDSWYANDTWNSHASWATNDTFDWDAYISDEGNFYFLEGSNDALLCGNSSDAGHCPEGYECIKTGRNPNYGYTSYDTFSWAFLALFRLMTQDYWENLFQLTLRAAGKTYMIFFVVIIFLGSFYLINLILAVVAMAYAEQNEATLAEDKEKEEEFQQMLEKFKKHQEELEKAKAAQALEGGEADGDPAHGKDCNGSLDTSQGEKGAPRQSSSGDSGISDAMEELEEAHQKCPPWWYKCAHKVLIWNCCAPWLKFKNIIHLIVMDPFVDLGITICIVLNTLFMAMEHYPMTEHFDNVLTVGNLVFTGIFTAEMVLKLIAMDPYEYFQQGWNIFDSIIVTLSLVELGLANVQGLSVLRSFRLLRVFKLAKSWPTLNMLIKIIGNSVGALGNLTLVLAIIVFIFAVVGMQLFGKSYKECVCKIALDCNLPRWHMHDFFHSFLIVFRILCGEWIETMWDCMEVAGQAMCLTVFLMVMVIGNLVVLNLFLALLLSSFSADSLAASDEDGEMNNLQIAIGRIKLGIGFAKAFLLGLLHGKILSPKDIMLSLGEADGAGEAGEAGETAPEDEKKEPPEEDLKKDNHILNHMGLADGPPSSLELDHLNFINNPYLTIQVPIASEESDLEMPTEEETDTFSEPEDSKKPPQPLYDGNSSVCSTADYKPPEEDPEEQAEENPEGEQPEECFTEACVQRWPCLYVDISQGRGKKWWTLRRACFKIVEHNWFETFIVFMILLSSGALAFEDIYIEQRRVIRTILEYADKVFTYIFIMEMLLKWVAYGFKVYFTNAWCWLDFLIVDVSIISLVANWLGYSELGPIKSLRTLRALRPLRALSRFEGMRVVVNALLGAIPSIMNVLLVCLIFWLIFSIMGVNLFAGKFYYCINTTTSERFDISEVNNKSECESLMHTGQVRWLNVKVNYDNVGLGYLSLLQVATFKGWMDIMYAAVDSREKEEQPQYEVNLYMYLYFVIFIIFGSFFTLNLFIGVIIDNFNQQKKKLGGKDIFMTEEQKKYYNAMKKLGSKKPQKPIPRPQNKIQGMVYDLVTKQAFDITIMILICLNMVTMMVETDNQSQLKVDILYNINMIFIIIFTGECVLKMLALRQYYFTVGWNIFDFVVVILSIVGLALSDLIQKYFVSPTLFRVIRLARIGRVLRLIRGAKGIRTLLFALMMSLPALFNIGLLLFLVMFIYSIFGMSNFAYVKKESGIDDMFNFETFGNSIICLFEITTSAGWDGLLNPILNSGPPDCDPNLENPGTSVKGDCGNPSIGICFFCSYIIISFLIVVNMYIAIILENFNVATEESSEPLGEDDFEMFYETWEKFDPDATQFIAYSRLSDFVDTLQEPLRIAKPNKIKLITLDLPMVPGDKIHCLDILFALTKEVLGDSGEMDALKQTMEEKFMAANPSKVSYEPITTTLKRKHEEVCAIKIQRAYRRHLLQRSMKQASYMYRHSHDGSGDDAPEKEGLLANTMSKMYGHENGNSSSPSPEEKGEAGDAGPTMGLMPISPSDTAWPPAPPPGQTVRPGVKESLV
# [3] = molecular target: T3, human NaV1.7 expressed in HEK293 cells (human, UniProt Q15858 1-1988); test: cell-based or functional assay
# [4] = molecular target: T4, mouse NaV1.6 expressed in HEK293 cells (mouse, UniProt Q9WTU3 1-1978); test: cell-based or functional assay
# [5] = molecular target: T5, human NaV1.3 expressed in HEK293 cells (human, UniProt Q9NY46 1-2000); test: cell-based or functional assay
# [6] = molecular target: T6, human NaV1.1 expressed in HEK293 cells (human, UniProt P35498 1-2009); test: cell-based or functional assay
# [7] = molecular target: T7, rat NaV1.2 expressed in HEK293 cells (rat, UniProt P04775 1-2005); test: cell-based or functional assay
# [8] = molecular target: T8, rat NaV1.8 expressed in HEK293 cells (rat, UniProt Q62968 1-1956); test: cell-based or functional assay
# [9] = molecular target: T3, human NaV1.7 expressed in HEK293 cells; test: fraction bound = 1 - I/I0 from whole-cell voltage clamp of hNaV1.7 in HEK293 cells, 30 ms pulses to -10 mV from -120 mV at 10 Hz; mean±S.E.M., n=10
# [10] = molecular target: T3, human NaV1.7 expressed in HEK293 cells; test: apparent KD from whole-cell voltage clamp of hNaV1.7 in HEK293 cells at 10 Hz; fraction bound Y=1-I/I0 fitted to a one-site binding equation; apparent KD from inhibition of peak sodium current (Y=1-I/IO), one-site fit, n=10
# [11] = molecular target: T1, mouse NaV1.5 expressed in HEK293 cells; test: cell-based or functional assay; remark: listed apart in the source
# [12] = molecular target: T2, human NaV1.4 expressed in HEK293 cells; test: cell-based or functional assay; remark: listed apart in the source
# [13] = molecular target: T3, human NaV1.7 expressed in HEK293 cells; test: cell-based or functional assay; remark: listed apart in the source
# [14] = molecular target: T4, mouse NaV1.6 expressed in HEK293 cells; test: cell-based or functional assay; remark: listed apart in the source
# [15] = molecular target: T5, human NaV1.3 expressed in HEK293 cells; test: cell-based or functional assay; remark: listed apart in the source
# [16] = molecular target: T6, human NaV1.1 expressed in HEK293 cells; test: cell-based or functional assay; remark: listed apart in the source
# [17] = molecular target: T7, rat NaV1.2 expressed in HEK293 cells; test: cell-based or functional assay; remark: listed apart in the source
# [18] = molecular target: T8, rat NaV1.8 expressed in HEK293 cells; test: cell-based or functional assay; remark: listed apart in the source
binder,measurement,setting,value
B1,"IC50 (µM), sodium current at 2 Hz",[1],5.6 µM
same,Maximum inhibition (%),[1],19.1%
same,Selectivity for Nav1.7,[1],830 fold
same,"IC50 (µM), sodium current at 2 Hz",[2],7.9 µM
same,Maximum inhibition (%),[2],21.5%
same,Selectivity for Nav1.7,[2],1040 fold
same,"IC50 (µM), sodium current at 2 Hz",[3],0.0307 µM
same,Maximum inhibition (%),[3],86.9%
same,Selectivity for Nav1.7,[3],1 fold
same,"IC50 (µM), sodium current at 2 Hz",[4],6.3 µM
same,Maximum inhibition (%),[4],44.2%
same,Selectivity for Nav1.7,[4],404 fold
same,"IC50 (µM), sodium current at 2 Hz",[5],8.7 µM
same,Maximum inhibition (%),[5],16.2%
same,Selectivity for Nav1.7,[5],1520 fold
same,"IC50 (µM), sodium current at 2 Hz",[6],6.3 µM
same,Maximum inhibition (%),[6],20.7%
same,Selectivity for Nav1.7,[6],862 fold
same,"IC50 (µM), sodium current at 2 Hz",[7],9 µM
same,Maximum inhibition (%),[7],18.7%
same,Selectivity for Nav1.7,[7],1360 fold
same,"IC50 (µM), sodium current at 2 Hz",[8],5.2 µM
same,Maximum inhibition (%),[8],22.1%
same,Selectivity for Nav1.7,[8],666 fold
same,EC50 (read off the curve),[9],~0.02 µM
same,Kd,[10],0.0229 µM
same,"IC50, sodium current at 2 Hz",[11],> 5 µM
same,"IC50, sodium current at 2 Hz",[12],> 5 µM
same,IC50 of inhibition of human NaV1.7 currents at 0.1 Hz,[13],0.107 µM
same,IC50 of inhibition of human NaV1.7 currents at 10 Hz,[13],0.0167 µM
same,fold decrease in efficacy relative to NaV1.7,[14],~2 fold
same,fold decrease in potency relative to NaV1.7,[14],~200 fold
same,"IC50, sodium current at 2 Hz",[15],> 5 µM
same,"IC50, sodium current at 2 Hz",[16],> 5 µM
same,"IC50, sodium current at 2 Hz",[17],> 5 µM
same,"IC50, sodium current at 2 Hz",[18],> 5 µM
